The values below come from the DeepSol protein solubility set.

The data set is described as follows: soluble on expression in E. coli; label from the status in PepcDB or PDB records.
For “MSLTDPAPEPEPPVEGQWTALTASPDTWDETKRADISYQLLLYSFADSDGDGYGDLNGVTQKLDYLNQLGVKALWLSPIHPCMSYHGYDVTDYTKVNPQLGTESDFDRLVTEAHNRGIKIYLDYVMNHTGTAHPWFTEASSSSESPYRNYYSFSEDPKTDIAAGKIAMITQEGAAGYNAAEWFQVSDETAAVKGLLKFTLDWSNAPSPILVVSTGTKADEDNPDTGTDNAKYLYYGEDICKKFYDKGNNIYELTVDFESTWGLLIRTSNASFWPSGTKYGASSSSEKLALNKDFKLTNAGNPANIMFDSQQITYFHSHFCTDWFADLNYGPVDQAGESPAYQAIADAAKGWIARGVDGLRLDAVKHIYHSETSEENPRFLKMFYEDMNAYYKQKGHTDDFYMIGEVLSEYDKVAPYYKGLPALFEFSFWYRLEWGINNSTGCYFAKDILSYQQKYANYRSDYIEATKLSNHDEDRTSSKLGKSADKCKLAAAVLLTSAGHPYIYYGEELGLYGTKDNGDEYVRSPMLWGDSYTTNYTDKTDATVSKNVKTVADQQADTHSLLNIYFSLTRLRNTYPALAEGNMTKHSVYNESQEKDYKPIAAWYMTKDNEKLLVIHNFGGTAMQLPLTDKIEKVLFVNGETQQNTDSDSYTLKLGGYASVVFKLGNEGHHHHHH”, the “soluble on expression in E. coli” value is reported as “soluble”. Under “MGSDKIHHHHHHMTNSIMALPSSIRHYRRKQMAINQVAQTPAISPLTIKERTGSISTAEMISVLKGETTALHIKQAFSTEVAEEITTNFLGSPGLKERKDGVPGQYVGASHYRKDAATYFAESETARPHVDALFENLVDPVRGSFDALKRELHKQGIELRLARSEHGHANVCRALSWSGSGTFSLDPHDDVAQVLSAGNDYELSAVAHNTVAALNFYPSMPEEGGNLRLWSHKPTVADRKSQGVETTGYPYSSAYLEAVPCREFQLKPGDIALIDGGFVHGVTGQSGNGKRRLVLNSFFGFARPDLVLWWT” stands “not soluble”.

For the sequence “MGSDKIHHHHHHMWLSSEFNRMAEKTFKAYEPDDAFFSTLLYGPEGVGKSTLLVKCCQRLKEKKTILYIDAQDFVKNYAFAAQEGTLSQFRLRLRTPGVLIMDHIEVLKGKTRSIEEFYHTYEALFQRNGRIICGFRGDPSQLGFLGEKLSSRLRGGLVVPILQPTPEDMLNYLRQMAYGKFLIVEDLVLELMAEEAANFPEAQSLMNGFIQFANRTDSALDHDALLLYLQERRYQEGLRPSPQNIIQKVAELTGVAAAAIYSTTRTPEVRQARQLAIYGIRSLSRLSYPEIGASLNKSHSSIMKSYQQFQEAVQKNPELREMLESLVKYFNSPDDEKTER”, the “soluble on expression in E. coli” value is “not soluble”. In the case of “MTPFTVDILIPIWNRPVETRNCLVTLMETTPSARLILIDNGSDRETERLLEEFSEILGERALFLKTSANQGFVRAVNRSLAQVEAPYAVVMQNTTLVTRGWLEPMVELADSRPDAGIIVPRLELEDGQGRRPKAAPPAGPVTEVSHGSFAASMVRRELVERQGGFDEELDGGPWCLRDYSRRAFRNGFLTLALDGAVVTYAEEVPLGSVARREETVRRSAETCRARWGREDAFCIYFPKDAEPEAVHGKLDVILRGARMGQCFTLILHPGLHKSLMETGHAPLHSNIALAPLPRFFATGEIRKIIGKLASVRGDTVTVAGVDGLSIPGVEGARSFSWLADEIRRRHESLYRPESP”, the “soluble on expression in E. coli” value is recorded as “soluble”.

For “MGSDKIHHHHHHMKTIAIRDVTGIMEPLPGFSVVRTDGSDGQRSIKLNGYKTTNNQYGYQFVKNENTVVYDDEEYIIKTHRERTYRKGVGVEATAIHRIFDDLRNNYIYDEKTGTLRLDAMLSFALEGSGYTFEIDTTDLPASVRVENFGWNNSLALFRDILEKFGAEFDYKGKKIYVAKKFGIQRDEPFLRYRFNVKDPEKEIDTSSFATYIRGYGKKDDKGNYLFAEYTSPLAKIYGIKHADPVKDERYTDKDSLLAAMKKQLNDNIDISLTFTAIELESMGLRDIKKGDYVWCVIEPFDLNVQLRAVSREDYSDETKSPTFTFGTITKKASDIIASFNTTKKAVDKVIDTSTGKIKDSAIDTTGLTTKSEFQSHVDNKIVHITAEERAAWNAASNSIGDLTFITWSTPTLKNGWIQYTANTESYPIQYGKDAIGTVNIRGAVSSGVVGSSTPVFTLPAGFRPPFPHLFIGVSSVATDGTPQYFRGIIKTNGDVCIENISNKDTPNQFIGIYTQFKAI”, the “soluble on expression in E. coli” value is “not soluble”. For the sequence “MGSDKIHHHHHHMNKKLLNKVMKKLASSNVVISPTVKSSSTSLSMQKKPETEQVQQKLEQYLLSRYHFRFNLLTEQTECCKKDADTPIYKVISQRTLNSLCLEARARHINCWDKDVSRFVNSEQMPDYHPLLSYMNTLPEWDGKDRVTPLAQRISTKDFWVNSFHRWMLGVTAQWSGRMDRCANAVAPMLVSSEQGRCKSTFCELLMPDSLKDYYTDSFELTGQAGCEQKLAFFGLINLDEYDRLSPQKLPLLKNLMQMKKLDFRKSHRSSYSHLPRMASFIGTSNRKALLTDPSGSRRYFFAEVKEKIDCSPLEHKQLFAQLKAELDEGKRYWFSAAEESELKLRNQAYYALPTEAEMILHCFRLPEKGEDFKLYSAVCLFNILLKRYPAAMRGITINKMGRIMNSLGAERMHTTTGNMYKLVALAG”, the “soluble on expression in E. coli” value was “not soluble”. On to “MKKVAIVGLGWLGMPLAMSLSARGWQVTGSKTTQDGVEAARMSGIDSYLLRMEPELVCDSDDLDALMDADALVITLPARRSGPGDEFYLQAVQELVDSALAHRIPRIIFTSSTSVYGDAQGTVKETTPRNPVTNSGRVLEELEDWLHNLPGTSVDILRLAGLVGPGRHPGRFFAGKTAPDGEHGVNLVHLEDVIGAITLLLQAPKGGHIYNICAPAHPARNVFYPQMARLLGLEPPQFRNSLDSGKGKIIDGSRICNELGFEYQYPDPLVMPLELEHHHHHH”, for which the “soluble on expression in E. coli” value is given as “not soluble”. The entry for “MSLDFREVIEQRYHQLLSRYIAELTETSLYQAQKFSRKTIEHQIPPEEIISIHRKVLKELYPSLPEDVFHSLDFLIEVMIGYGMAYQEHQTLRGIQQEIKSEIEIAANVQQTLLGTKVPQEEALDIGAISVPAKQMSGDYYHFVKDKESINIAIADVIGKGIPAALCMSMIKYAMDSLPETGIHPSQVLKNLNRVVEQNVDASMFITMFYANYNMDKHQFTYASAGHEPGFYYSQKDNTFYDLEAKGLVLGISQDYDYKQFDQHLEKGDMIVLFSDGVTECRTENGFLERPDLQKLIEEHMCSSAQEMVKNIYDSLLKLQDFQLHDDFTLIVLRRKVEGGSHHHHHH” is “soluble”.

For “MSIMKQRLPLGEFSSSKINKLAIANIADASEPRNHGENNVGTVCLPSIKSLMVSPEVYENTKSLPVPLMRSSGGGMACASKSSCQDGISTKTTSRDYSELSKKLQIRLQFAYYKYKTKQTDKNFTDLKSKHSITRPSKVATHSKSEPLTRRRKLVLSQGHYKTPARSKIKTPSSICSHDNTSSFTSFRGVSESSSTTADMNVADTTTPIRNNINTKHSNSHNRTLYQRQETPTSIKAAKSLIHLFTSNQ”, the “soluble on expression in E. coli” value is on record as “not soluble”.

For “MGSDKIHHHHHHMKAGLRIGLVGPLPPPSGGMANQTLQLAGLLREEHVEVELIQVNRPYRPGWIGRFKGIRAGFRLLSYVSQLWLSAGRVQLFHVMANSGWSWHLFAAPAIWIARLRGKPVIINYRGGEADSFFDKAFSWVKPSLSRANAIIVPSGFLEGVFGKRGFSASIVPNIIDLSRFGAGMRSDTSTVEAGPDSPHIIVTRNLEPIYDNETALRAFHIVRRSFPAAKLTLAGSGPERHTLEQLAFALGIGGAVTFTGRVDNEGMAAIYRSASVMLNPSLADNMPISILEALASGVPVVSTNVGGVPYLVEHEKNALLVPARDPQAMANAVLRLLNDAARTRRLIEAGMECVQRYTWPNVRVPLFRVYEQVLAAPDRSC”, the “soluble on expression in E. coli” value is given as “not soluble”.

“MSLKVLIKTDLVLGAPKTLRDVYIGIDEGQIKVISKEKPEDYDYAEYVIGGKNRVVAPGFVTTHSFLYLYPFRYRVFSGKANAFQLMSTLTPNDIYYFSLMGAYHLLKTGVTTVVTSGPNLDMIARAISEVGLRPVLAVGVDCPDSKEDWEREFTTLYNRWSSKNENRVILRLCSNEYSKEVFELSQQYDFPVLLERFVSLENISGNPINVIGLGGGARKDLDIIKQKGFHLASTPSYEVSQFPLSQYKPSISLDLSPTFDIRHEVSTSITRLILTPEEALNAMTIWGLLQLKYNDRGVLENGKVADLVIFEVKEPPTFPLDYESPYESIVFNLSTPETVLVSGEAILDGGVPLNIGIKHIEKAIERLEDIDKKVTEGHHHHHH”: the “soluble on expression in E. coli” value is on record as “soluble”.

Consider “MGSDKIHHHHHHADKHDHKGQTPLVEVDGNFLYKEDLQAVLPAGLSKDDSLLFAEHYVRSWVEDVLLFNQAQSNIPDNGEIDKLVENYRKALIMHTYQQELISQKLSGEIPEQEIADYYEKNKELFKLDRPLMKGLFIKVPLTAPQLGNVRKWYKTETQDAVEHLEKYSLQNAVKYEYFYDKWVRVADVLDMIPLKAESPEAYMDKNRHIELKDTAFYYFLNISDFRVAGEQEPYEFAQPKVKDMLVNIKRVDFMKQVKDDLYERAVKRKKIINY”, for which the “soluble on expression in E. coli” value was “not soluble”. Consider “MGHHHHHHSHMAASRNGFEAVEAEGSAGCRGSSGMEVVLPLDPAVPAPLCPHGPTLLFVKVTQGKEETRRFYACSACRDRKDCNFFQWEDEKLSGARLAAREAHNRRCQPPLSRTQCVERYLKFIELPLTQRKFCQTCQQLLLPDDWGQHSEHQVLGNVSITQLRRPSQLLYPLENKKTNAQYLFADRSCQFLVDLLSALGFRRVLCVGTPRLHELIKLTASGDKKSNIKSLLLDIDFRYSQFYMEDSFCHYNMFNHHFFDGKTALEVCRAFLQEDKGEGIIMVTDPPFGGLVEPLAITFKKLIAMWKEGQSQDDSHKELPIFWIFPYFFESRICQFFPSFQMLDYQVDYDNHALYKHGKTGRKQSPVRIFTNIPPNKIILPTEEGYRFCSPCQRYVSLENQHCELCNSCTSKDGRKWNHCFLCKKCVKPSWIHCSICNHCAVPDHSCEGPKHGCFICGELDHKRSTCP”, for which the “soluble on expression in E. coli” value was “soluble”. With “MKPKETVCFNIKYSWHAISRMYNERASKYGTTAAVGFILLNIDVEKGTAATHIGPALGMEATSLSRVFNTMEQDGLIERRNDSSDKRKVTIFLTALGKDKRQIAKDFVLDFNNKVREQVSESKLNTFFEVLHEIQSIIDNKNTSLT”, the “soluble on expression in E. coli” value is given as “soluble”. Regarding “DDPQRVTWPTNAGTIQQALKRGYVVVAAGIRGRTTVDKSGQRVGQAPAFIVDMKAAIRYVKYNQGRLPGDTNRIITNGTSAGGATSALAGASGNSAYFEPALTALGAAPATDDIFAVSAYCPIHNLEHADMAYEWQFNGINDWHRYQPVAGTTKNGRPKFEPVSGQLTVEEQALSLALKAQFSTYLNQLKLTASDGTHLTLNEAGMGSFRDVVRQLLISSAQTAFDQGTDIHKYAGFVVTGNQVTDLDLSAYLKSLTRMKAVPAFDQLDLTSPENNLFGDATAKAKHFTALAQTRSTVTAQLADAELIQAINPLSYLTTTSSRVAKHWRIRHGAADRDTSFAIPIILAIMLENHGYGIDFALPWDIPHSGD”, the “soluble on expression in E. coli” value is given as “not soluble”. With “MSLSENIAAYVGLDVHKETLAVAIAAPERLGEVRYYGTINNEAQAVRRLFQKLQGLYGNILSCYEAGPCGFGLYHQLTAMNIKCQVIAPSRIPKSPTDRIKNDHRDAISLARLLRAGELTPVWIPDLTHEAMRDLIRARAAAKRDSRVARQRILSMLLRTDKHYAGKHWTGKHRTWLANQSFSQPSQQIAFQHYCQSLEQIEDRILQLDQEISRLLPEWSLCNLVCQLQALKGVGQLIAITLVAELGDFSRFSNPKQLMAFLGLVPGEYSSGNSIRPRGITKVGNSELRRLLYEAAWSYRTPAKVGAWLIYYRPDSVTQYSKDIAWKAQQRLCSRYRSLTAKGKKSQVAITAVARELTGFMWDIALAAQSSFSQQKQNEGHHHHHH”, the “soluble on expression in E. coli” value is on record as “soluble”. For the sequence “MLARTIQRFSVVAKRGYAAAAPAANANPEELRLTFASPDTAVFSNAVVKQVDVPTLAGMVGVLANHVPTIGVLKPGVVSVTTNEGTVQRLFVSSGTLSVNIDGSCQVLAEEVLKVEEIDESAARAELDAAQRASGEGSEVARAEAQIRAEVAEALIKAATNQQ”, the “soluble on expression in E. coli” value is “not soluble”.
